# How the values were obtained:
# [1] = target: cation-independent mannose-6-phosphate receptor (CI-M6PR) on cells overexpressing CI-M6PR; assay: cellular uptake assay on cells overexpressing CI-M6PR, intracellular Naglu activity read-out
# Target sequence in this assay (P11717 41-2491): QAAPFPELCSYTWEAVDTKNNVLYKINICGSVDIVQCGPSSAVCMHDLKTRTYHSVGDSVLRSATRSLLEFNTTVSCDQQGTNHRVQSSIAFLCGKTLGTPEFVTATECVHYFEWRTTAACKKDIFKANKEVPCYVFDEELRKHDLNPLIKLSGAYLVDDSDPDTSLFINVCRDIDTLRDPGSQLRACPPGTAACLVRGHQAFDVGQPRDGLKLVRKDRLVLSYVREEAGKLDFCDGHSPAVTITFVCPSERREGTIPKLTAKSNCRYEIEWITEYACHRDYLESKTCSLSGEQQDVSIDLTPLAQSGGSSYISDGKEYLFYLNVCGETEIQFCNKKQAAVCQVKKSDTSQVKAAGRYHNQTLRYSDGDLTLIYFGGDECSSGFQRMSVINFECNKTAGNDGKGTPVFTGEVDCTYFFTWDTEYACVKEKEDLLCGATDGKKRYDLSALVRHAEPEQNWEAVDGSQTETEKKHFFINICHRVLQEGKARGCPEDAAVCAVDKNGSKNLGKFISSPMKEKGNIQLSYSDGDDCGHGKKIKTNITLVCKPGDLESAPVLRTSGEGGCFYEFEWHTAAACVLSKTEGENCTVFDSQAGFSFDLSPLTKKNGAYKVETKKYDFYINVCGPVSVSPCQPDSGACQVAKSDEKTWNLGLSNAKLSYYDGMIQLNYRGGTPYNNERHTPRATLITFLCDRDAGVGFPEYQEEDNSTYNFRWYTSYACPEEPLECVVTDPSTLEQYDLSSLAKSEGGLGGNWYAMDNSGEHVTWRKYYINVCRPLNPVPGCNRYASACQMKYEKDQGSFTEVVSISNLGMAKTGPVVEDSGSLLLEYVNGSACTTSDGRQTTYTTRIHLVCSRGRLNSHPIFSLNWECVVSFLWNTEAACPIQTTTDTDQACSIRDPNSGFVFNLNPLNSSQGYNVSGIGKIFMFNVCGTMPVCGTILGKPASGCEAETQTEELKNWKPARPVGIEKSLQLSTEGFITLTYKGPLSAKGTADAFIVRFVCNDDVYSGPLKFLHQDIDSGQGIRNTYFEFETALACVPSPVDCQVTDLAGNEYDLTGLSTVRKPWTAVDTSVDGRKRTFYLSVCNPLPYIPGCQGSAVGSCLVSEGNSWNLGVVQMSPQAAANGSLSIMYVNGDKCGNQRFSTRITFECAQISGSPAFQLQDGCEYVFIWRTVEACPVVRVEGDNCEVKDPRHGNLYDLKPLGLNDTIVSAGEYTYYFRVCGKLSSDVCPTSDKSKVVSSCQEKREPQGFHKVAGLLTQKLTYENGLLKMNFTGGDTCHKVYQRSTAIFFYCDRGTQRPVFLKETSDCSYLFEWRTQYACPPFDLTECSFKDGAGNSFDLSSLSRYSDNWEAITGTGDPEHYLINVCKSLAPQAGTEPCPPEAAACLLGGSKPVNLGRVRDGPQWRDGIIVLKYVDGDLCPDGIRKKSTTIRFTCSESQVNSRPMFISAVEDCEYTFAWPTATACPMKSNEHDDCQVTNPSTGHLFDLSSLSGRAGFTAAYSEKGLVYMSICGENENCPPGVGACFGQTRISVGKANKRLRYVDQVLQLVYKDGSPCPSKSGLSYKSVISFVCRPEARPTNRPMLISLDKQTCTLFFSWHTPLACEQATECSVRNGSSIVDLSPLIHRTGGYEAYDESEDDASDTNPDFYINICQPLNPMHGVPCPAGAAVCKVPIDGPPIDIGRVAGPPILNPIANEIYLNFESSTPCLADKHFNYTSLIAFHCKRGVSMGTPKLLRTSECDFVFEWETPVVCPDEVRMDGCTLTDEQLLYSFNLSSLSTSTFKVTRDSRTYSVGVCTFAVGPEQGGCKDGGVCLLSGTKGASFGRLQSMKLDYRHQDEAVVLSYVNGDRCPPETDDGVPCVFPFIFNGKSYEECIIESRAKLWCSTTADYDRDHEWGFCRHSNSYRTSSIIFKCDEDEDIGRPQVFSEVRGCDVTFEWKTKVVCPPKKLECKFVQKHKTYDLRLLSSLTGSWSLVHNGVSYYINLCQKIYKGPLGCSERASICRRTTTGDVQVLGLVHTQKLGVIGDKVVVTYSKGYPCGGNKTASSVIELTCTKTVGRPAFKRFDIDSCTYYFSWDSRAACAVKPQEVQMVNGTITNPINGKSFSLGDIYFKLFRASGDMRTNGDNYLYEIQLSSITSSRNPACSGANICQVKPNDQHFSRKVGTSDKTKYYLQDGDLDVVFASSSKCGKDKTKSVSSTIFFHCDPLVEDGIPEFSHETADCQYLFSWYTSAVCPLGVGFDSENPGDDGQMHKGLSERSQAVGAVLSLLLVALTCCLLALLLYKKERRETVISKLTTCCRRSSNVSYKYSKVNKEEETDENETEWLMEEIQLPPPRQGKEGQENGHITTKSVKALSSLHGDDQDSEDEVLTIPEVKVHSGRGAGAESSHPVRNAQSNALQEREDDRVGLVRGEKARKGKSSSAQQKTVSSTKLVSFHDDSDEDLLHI
# [2] = target: cation-independent mannose-6-phosphate receptor (CI-M6PR) on cells overexpressing CI-M6PR; assay: cellular uptake assay on cells overexpressing CI-M6PR, intracellular I2S enzyme activity read-out
Substance,Kd [1] [nM],Kd [2] [nM]
Naglu-LIF fusion protein produced in HT-1080 cells overexpressing GNPT (enzyme),15,
Naglu-LIF fusion protein (produced in HT-1080 cells) (enzyme),178,
recombinant iduronate 2-sulfatase (I2S) produced in HT-1080 cells overexpressing I2S alone (from UniProt P22304 26-550) (enzyme),,27.9
recombinant iduronate 2-sulfatase (I2S) produced in HT-1080 cells co-overexpressing GNPT (from UniProt P22304 26-550) (enzyme),,1.65

# From patent US20170232076A1
